Assay results from paper PMC8800102.
Where two headings read alike, the source gives them in different places.

How the values were obtained:
Experiment in all cases: NMR titration
[1] = molecular target: T1, Sds3 capped Tudor domain (CTD) (mouse, UniProt Q8BR65 250-326)
T1 sequence: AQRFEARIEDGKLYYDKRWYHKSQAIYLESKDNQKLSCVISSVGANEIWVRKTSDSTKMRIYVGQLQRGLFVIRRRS

[2] = molecular target: T1, Sds3 capped Tudor domain (CTD); remark: listed apart in the source
[3] = molecular target: T1, Sds3 capped Tudor domain (CTD); remark: listed apart in the source

Binder: AACUGUCG (ssRNA) [random RNA 8mer]
- binding result [1]: no binding

Binder: TGTGGTT (ssDNA) [SELEX 7mer motif]
- binding result [2]: no binding

Binder: TTGGGG (structured_DNA) [T2G4]
- binding result [3]: binds
